US20210139548A1 (published 2021)
Values belong to the binder of their own block, whether it stands above or below them. *1 amine or outer side, *2 acyl side, *3 side chain or, on linkers, in order; H or OH if unused. Side-chain parts run from the residue outwards. The star is where a group is joined. C18 diacid = O=C(O)CCCCCCCCCCCCCCCCC(=O)*; γGlu = O=C(O)[C@H](CCC(=O)[*:2])N[*:1]; Isovaleryl = CC(C)CC(=O)*; AEEA = NCCOCCOCC(=O)O

Key:
[1] = target: T1, human NPY5 receptor (human, UniProt Q15761 1-445); experiment: cell-based or functional assay
T1 sequence (looked up): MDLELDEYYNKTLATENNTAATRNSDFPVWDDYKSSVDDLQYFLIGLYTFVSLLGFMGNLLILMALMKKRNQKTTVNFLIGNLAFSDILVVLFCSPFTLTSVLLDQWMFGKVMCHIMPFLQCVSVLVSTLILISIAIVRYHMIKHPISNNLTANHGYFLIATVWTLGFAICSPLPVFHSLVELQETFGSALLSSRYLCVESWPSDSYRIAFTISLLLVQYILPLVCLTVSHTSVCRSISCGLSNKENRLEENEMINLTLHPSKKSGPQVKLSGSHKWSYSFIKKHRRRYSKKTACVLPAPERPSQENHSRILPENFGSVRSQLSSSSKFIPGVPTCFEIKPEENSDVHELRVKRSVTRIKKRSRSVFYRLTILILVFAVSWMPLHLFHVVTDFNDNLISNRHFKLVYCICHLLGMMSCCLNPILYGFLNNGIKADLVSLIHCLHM

[2] = target: T2, human NPY1 receptor (human, UniProt P25929 1-384); experiment: cell-based or functional assay
T2 sequence (looked up): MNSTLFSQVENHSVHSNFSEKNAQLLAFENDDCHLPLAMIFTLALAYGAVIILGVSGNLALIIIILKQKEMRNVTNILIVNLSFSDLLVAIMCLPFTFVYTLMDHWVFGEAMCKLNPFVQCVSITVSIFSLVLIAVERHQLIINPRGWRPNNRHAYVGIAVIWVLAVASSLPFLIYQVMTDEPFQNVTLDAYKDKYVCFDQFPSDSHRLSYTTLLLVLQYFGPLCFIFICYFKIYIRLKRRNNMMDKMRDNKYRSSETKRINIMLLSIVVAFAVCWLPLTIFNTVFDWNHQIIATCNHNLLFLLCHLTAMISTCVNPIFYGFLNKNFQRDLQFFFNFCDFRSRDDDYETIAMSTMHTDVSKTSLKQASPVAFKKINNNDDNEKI

[3] = target: human NPY4 receptor (human, UniProt P50391 1-375); experiment: cell-based or functional assay
[4] = target: T3, human neuropeptide Y2 receptor (human, UniProt P49146 1-381); experiment: cell-based or functional assay
T3 sequence (looked up): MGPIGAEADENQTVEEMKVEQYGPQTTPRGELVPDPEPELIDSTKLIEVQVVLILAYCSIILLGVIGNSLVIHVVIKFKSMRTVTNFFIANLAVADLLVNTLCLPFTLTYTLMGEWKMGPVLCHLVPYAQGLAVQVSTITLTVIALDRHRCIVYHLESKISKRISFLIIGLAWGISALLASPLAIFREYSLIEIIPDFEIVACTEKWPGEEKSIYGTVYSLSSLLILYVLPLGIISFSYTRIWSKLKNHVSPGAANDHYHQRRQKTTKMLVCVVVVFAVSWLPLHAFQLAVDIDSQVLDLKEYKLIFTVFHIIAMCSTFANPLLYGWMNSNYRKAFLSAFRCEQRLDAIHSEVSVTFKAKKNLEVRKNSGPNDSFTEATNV

[5] = target: T3, human neuropeptide Y2 receptor; experiment: radioligand competition (125I-PYY(1-36)), hNPY2R membranes
Procedure, shortened: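 Commercial human Y2 receptor membranes (0.5 μg protein/well) were incubated with peptide for 2 h at room temperature in 50 mM HEPES, 5 mM MgCl₂, 1 mM CaCl₂, pH 7.4, with 0.2% ovalbumin. Bound radioligand was separated on PEI-soaked GF/C filters and counted by scintillation, and IC₅₀ came from nonlinear sigmoidal regression.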

human NPY4 receptor, sequence (P50391 whole entry): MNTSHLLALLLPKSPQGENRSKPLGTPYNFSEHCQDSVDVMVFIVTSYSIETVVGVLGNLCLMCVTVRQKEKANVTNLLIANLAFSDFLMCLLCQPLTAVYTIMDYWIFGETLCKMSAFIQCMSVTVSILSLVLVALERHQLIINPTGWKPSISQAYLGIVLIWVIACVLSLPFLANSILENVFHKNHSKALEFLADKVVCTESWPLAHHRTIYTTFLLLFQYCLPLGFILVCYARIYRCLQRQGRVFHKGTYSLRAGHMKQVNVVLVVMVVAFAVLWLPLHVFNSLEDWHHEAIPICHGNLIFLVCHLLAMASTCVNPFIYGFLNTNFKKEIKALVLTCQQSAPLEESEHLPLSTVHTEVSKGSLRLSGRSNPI

B1: Compound 54 (peptide)
peptide: Isovaleryl-APEK([AEEA-AEEA-γGlu-C18 diacid])PEEDASPEELQRYYVSLRHYYNWLTRQRY-NH2
SMILES: CC(C)CC(=O)N[C@@H](C)C(=O)N1CCC[C@H]1C(=O)N[C@@H](CCC(=O)O)C(=O)N[C@@H](CCCCNC(=O)COCCOCCNC(=O)COCCOCCNC(=O)CC[C@H](NC(=O)CCCCCCCCCCCCCCCCC(=O)O)C(=O)O)C(=O)N1CCC[C@H]1C(=O)N[C@@H](CCC(=O)O)C(=O)N[C@@H](CCC(=O)O)C(=O)N[C@@H](CC(=O)O)C(=O)N[C@@H](C)C(=O)N[C@@H](CO)C(=O)N1CCC[C@H]1C(=O)N[C@@H](CCC(=O)O)C(=O)N[C@@H](CCC(=O)O)C(=O)N[C@@H](CC(C)C)C(=O)N[C@@H](CCC(N)=O)C(=O)N[C@@H](CCCNC(=N)N)C(=O)N[C@@H](Cc1ccc(O)cc1)C(=O)N[C@@H](Cc1ccc(O)cc1)C(=O)N[C@H](C(=O)N[C@@H](CO)C(=O)N[C@@H](CC(C)C)C(=O)N[C@@H](CCCNC(=N)N)C(=O)N[C@@H](Cc1c[nH]cn1)C(=O)N[C@@H](Cc1ccc(O)cc1)C(=O)N[C@@H](Cc1ccc(O)cc1)C(=O)N[C@@H](CC(N)=O)C(=O)N[C@@H](Cc1c[nH]c2ccccc12)C(=O)N[C@@H](CC(C)C)C(=O)N[C@H](C(=O)N[C@@H](CCCNC(=N)N)C(=O)N[C@@H](CCC(N)=O)C(=O)N[C@@H](CCCNC(=N)N)C(=O)N[C@@H](Cc1ccc(O)cc1)C(N)=O)[C@@H](C)O)C(C)C
EC50 (HTRF cAMP Gi assay) [1]: > 5 µM
EC50 (HTRF cAMP Gi assay) [2]: > 5 µM
EC50 (HTRF cAMP Gi assay) [3]: > 5 µM
EC50 (HTRF cAMP Gi assay) [4]: 0.131 nM
Ki [5]: 0.95 nM

B2: Compound 18 (peptide)
peptide: Isovaleryl-APEK([AEEA-AEEA-γGlu-C18 diacid])PEEDAEPEELQQYYVSLRHYYNWLTRQRY-NH2
SMILES: CC(C)CC(=O)N[C@@H](C)C(=O)N1CCC[C@H]1C(=O)N[C@@H](CCC(=O)O)C(=O)N[C@@H](CCCCNC(=O)COCCOCCNC(=O)COCCOCCNC(=O)CC[C@H](NC(=O)CCCCCCCCCCCCCCCCC(=O)O)C(=O)O)C(=O)N1CCC[C@H]1C(=O)N[C@@H](CCC(=O)O)C(=O)N[C@@H](CCC(=O)O)C(=O)N[C@@H](CC(=O)O)C(=O)N[C@@H](C)C(=O)N[C@@H](CCC(=O)O)C(=O)N1CCC[C@H]1C(=O)N[C@@H](CCC(=O)O)C(=O)N[C@@H](CCC(=O)O)C(=O)N[C@@H](CC(C)C)C(=O)N[C@@H](CCC(N)=O)C(=O)N[C@@H](CCC(N)=O)C(=O)N[C@@H](Cc1ccc(O)cc1)C(=O)N[C@@H](Cc1ccc(O)cc1)C(=O)N[C@H](C(=O)N[C@@H](CO)C(=O)N[C@@H](CC(C)C)C(=O)N[C@@H](CCCNC(=N)N)C(=O)N[C@@H](Cc1c[nH]cn1)C(=O)N[C@@H](Cc1ccc(O)cc1)C(=O)N[C@@H](Cc1ccc(O)cc1)C(=O)N[C@@H](CC(N)=O)C(=O)N[C@@H](Cc1c[nH]c2ccccc12)C(=O)N[C@@H](CC(C)C)C(=O)N[C@H](C(=O)N[C@@H](CCCNC(=N)N)C(=O)N[C@@H](CCC(N)=O)C(=O)N[C@@H](CCCNC(=N)N)C(=O)N[C@@H](Cc1ccc(O)cc1)C(N)=O)[C@@H](C)O)C(C)C
EC50 (HTRF cAMP Gi assay) [1]: > 5 µM
EC50 (HTRF cAMP Gi assay) [2]: > 5 µM
EC50 (HTRF cAMP Gi assay) [3]: > 5 µM
EC50 (HTRF cAMP Gi assay) [4]: 0.167 nM
Ki [5]: 3.71 nM

Second part, the binder after the results:

EC50 (HTRF cAMP Gi assay) [1]: > 5 µM
EC50 (HTRF cAMP Gi assay) [2]: > 5 µM
EC50 (HTRF cAMP Gi assay) [3]: > 5 µM
EC50 (HTRF cAMP Gi assay) [4]: 0.159 nM
Ki [5]: 3.22 nM
B3: Compound 41 (peptide)
peptide: Isovaleryl-APEK([AEEA-AEEA-γGlu-C18 diacid])PEEEATPEELQRYYVSLRHYYNWLTRQRY-NH2
SMILES: CC(C)CC(=O)N[C@@H](C)C(=O)N1CCC[C@H]1C(=O)N[C@@H](CCC(=O)O)C(=O)N[C@@H](CCCCNC(=O)COCCOCCNC(=O)COCCOCCNC(=O)CC[C@H](NC(=O)CCCCCCCCCCCCCCCCC(=O)O)C(=O)O)C(=O)N1CCC[C@H]1C(=O)N[C@@H](CCC(=O)O)C(=O)N[C@@H](CCC(=O)O)C(=O)N[C@@H](CCC(=O)O)C(=O)N[C@@H](C)C(=O)N[C@H](C(=O)N1CCC[C@H]1C(=O)N[C@@H](CCC(=O)O)C(=O)N[C@@H](CCC(=O)O)C(=O)N[C@@H](CC(C)C)C(=O)N[C@@H](CCC(N)=O)C(=O)N[C@@H](CCCNC(=N)N)C(=O)N[C@@H](Cc1ccc(O)cc1)C(=O)N[C@@H](Cc1ccc(O)cc1)C(=O)N[C@H](C(=O)N[C@@H](CO)C(=O)N[C@@H](CC(C)C)C(=O)N[C@@H](CCCNC(=N)N)C(=O)N[C@@H](Cc1c[nH]cn1)C(=O)N[C@@H](Cc1ccc(O)cc1)C(=O)N[C@@H](Cc1ccc(O)cc1)C(=O)N[C@@H](CC(N)=O)C(=O)N[C@@H](Cc1c[nH]c2ccccc12)C(=O)N[C@@H](CC(C)C)C(=O)N[C@H](C(=O)N[C@@H](CCCNC(=N)N)C(=O)N[C@@H](CCC(N)=O)C(=O)N[C@@H](CCCNC(=N)N)C(=O)N[C@@H](Cc1ccc(O)cc1)C(N)=O)[C@@H](C)O)C(C)C)[C@@H](C)O

EC50 (HTRF cAMP Gi assay) [1]: > 5 µM
EC50 (HTRF cAMP Gi assay) [2]: > 5 µM
EC50 (HTRF cAMP Gi assay) [3]: > 5 µM
EC50 (HTRF cAMP Gi assay) [4]: 0.334 nM
Ki [5]: 0.74 nM
B4: Compound 11 (peptide)
peptide: Isovaleryl-APEK([AEEA-AEEA-γGlu-C18 diacid])PEEDASPEEIQQYYVSLRHYYNWLTRQRY-NH2
SMILES: CC[C@H](C)[C@H](NC(=O)[C@H](CCC(=O)O)NC(=O)[C@H](CCC(=O)O)NC(=O)[C@@H]1CCCN1C(=O)[C@H](CO)NC(=O)[C@H](C)NC(=O)[C@H](CC(=O)O)NC(=O)[C@H](CCC(=O)O)NC(=O)[C@H](CCC(=O)O)NC(=O)[C@@H]1CCCN1C(=O)[C@H](CCCCNC(=O)COCCOCCNC(=O)COCCOCCNC(=O)CC[C@H](NC(=O)CCCCCCCCCCCCCCCCC(=O)O)C(=O)O)NC(=O)[C@H](CCC(=O)O)NC(=O)[C@@H]1CCCN1C(=O)[C@H](C)NC(=O)CC(C)C)C(=O)N[C@@H](CCC(N)=O)C(=O)N[C@@H](CCC(N)=O)C(=O)N[C@@H](Cc1ccc(O)cc1)C(=O)N[C@@H](Cc1ccc(O)cc1)C(=O)N[C@H](C(=O)N[C@@H](CO)C(=O)N[C@@H](CC(C)C)C(=O)N[C@@H](CCCNC(=N)N)C(=O)N[C@@H](Cc1c[nH]cn1)C(=O)N[C@@H](Cc1ccc(O)cc1)C(=O)N[C@@H](Cc1ccc(O)cc1)C(=O)N[C@@H](CC(N)=O)C(=O)N[C@@H](Cc1c[nH]c2ccccc12)C(=O)N[C@@H](CC(C)C)C(=O)N[C@H](C(=O)N[C@@H](CCCNC(=N)N)C(=O)N[C@@H](CCC(N)=O)C(=O)N[C@@H](CCCNC(=N)N)C(=O)N[C@@H](Cc1ccc(O)cc1)C(N)=O)[C@@H](C)O)C(C)C
